Experimental data: article PMC6994465, “Structural basis of proton-coupled potassium transport in the KUP family” (Nature Communications, 2020)

Biological target: the molecule itself
Experiment: cryo-EM structure; KimA in SMA lipid particles (SMALPs) at 1.1 mg/mL, 50 mM Tris pH 8, 100 mM KCl, with 50 uM cyclic di-AMP; C2 symmetry; 3.7 A

B1: KimA from Bacillus subtilis (natural protein)
chain: MYHSIKRFLIGKPLKSQAAGEQKLTKLKALAMLSSDALSSVAYGTEQILIILATISAAAFWYSIPIAVGVLILLLALILSYRQIIYAYPQGGGAYIVSKENLGEKPGLIAGGSLLVDYILTVAVSISAGTDAITSAFPALHDYHVPIAIFLVLVIMILNLRGLSESASILAYPVYLFVVALLVLIAVGLFKLMTGQIDQPAHHTSLGTPVAGITLFLLLKAFSSGCSALTGVEAISNAIPAFKNPPARNAARTLAMMGILLAILFSGITVLAYGYGTAPKPDETVVSQIASETFGRNVFYYVIQGVTSLILVLAANTGFSAFPQLAFNLARDQYMPRMFTVRGDRLGFSNGIIFLGFASIVLIILFGGQTEHLIPLYAVGVFIPFTLSQTGMCMKWIKQKPKGWIGKMLINSCGALISFMVLSILFVTKFNVVWPVLIFMPIVVLLFFAIKNHYTAVGEQLRIVDKEPEEIKGTVVIVPVAGVTTVVQKSIHYAKSLSDQVIAVHVSFDREQEKKFEKRWEELNNGVRLVTLHSSYRSLVHPFDKFLETVEAKAKKEQFSVMVLFPQFITKKRWHTILHNQSAFLLRVRLFWKKDIMVATLPYHFKK
notes: KimA, potassium importer of the KUP family, Bacillus subtilis; gene amplified from genomic DNA; Homodimer in the cryo-EM structure; The model holds 572 of 607 residues (it lacks the first 26 residues and residues 480-481, 534-538 and 607); Primers are in the Supplementary Methods; also called wild-type KimA; potassium importer KimA; source: E. coli LB2003, purified (membranes solubilised with SMA …)
stoichiometry N: 2
